Here are results for two molecules from patent publication US20170101472A1 (Regeneron, published 2017).

Bounds are passed on as bounds.

As usually defined, the IC50 is the concentration at which inhibition is half-maximal. Broadly, the EC50 is the concentration needed to bring the measured effect to its halfway point. A low value points to a more potent agent. Usually Kd stands for the free concentration of one partner at which half of the binding sites on the other are occupied at equilibrium, for simple one-to-one binding. As usually defined, the koff is the rate constant with which the complex falls apart. In general, kon refers to the second-order rate constant of association.

In experiment [1] the target is T1, human LAG3 expressed on HEK293 cells (human, UniProt P18627 23-525).
T1 construct: also called hLAG3; HEK293/hLAG3
T1 sequence: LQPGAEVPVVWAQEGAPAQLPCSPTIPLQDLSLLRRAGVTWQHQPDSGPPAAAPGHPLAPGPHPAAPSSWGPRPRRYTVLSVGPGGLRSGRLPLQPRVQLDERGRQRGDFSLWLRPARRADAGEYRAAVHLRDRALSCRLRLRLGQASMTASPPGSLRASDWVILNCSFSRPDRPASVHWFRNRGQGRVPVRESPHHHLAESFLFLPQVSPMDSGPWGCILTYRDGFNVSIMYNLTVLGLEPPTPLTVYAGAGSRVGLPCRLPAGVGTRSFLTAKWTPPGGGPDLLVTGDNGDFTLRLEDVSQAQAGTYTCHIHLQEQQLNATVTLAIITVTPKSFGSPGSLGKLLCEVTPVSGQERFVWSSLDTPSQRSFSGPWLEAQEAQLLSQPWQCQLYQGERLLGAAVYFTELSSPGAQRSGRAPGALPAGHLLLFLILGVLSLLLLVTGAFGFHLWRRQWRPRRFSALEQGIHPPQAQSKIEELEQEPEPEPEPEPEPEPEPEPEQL
Nature of the experiment: cell adherence assay, blocks RAJI (human MHCII) cells on HEK293-hLAG3. Here is the method:
Cells were plated into sterile Nunclon™ Delta 96-Well MicroWell™ Black Optical Bottom Plates (Thermo Scientific). The wells from the perimeter of the plate were not included in the assay design to avoid edge effects.
On the day of treatment, all antibodies were serially (1:3) diluted in RPMI media (without FBS or supplements added). The 9-point dilution ranged between 45 pM to 300 nM, with the last dilution point containing no mAb. […] While the plated HEK293-LAG3 cells were incubating with the test or control antibodies, non-adherent B-cells (RAJI or A20) were labeled with Calcein AM using the following procedure. RAJI and A20 suspension cells were harvested and centrifuged at 1,200 rpm for 5 minutes. Cell pellets were resuspended in 1×PBS and counted. Cells were washed with RPMI, and resuspended in RPMI at a concentration of 10⁶ cells per 1 ml. Cells were labeled by adding 5 μL of Calcein AM per 1 ml of cell suspension and incubated for 30 min at 37° C., at 5% CO₂. […] Subsequently, 10 μL of BD Pharmingen Fc Block (0.5 mg/mL) was added per 1 ml of the Calcein AM labeled cells, which were incubated at RT for 10 minutes. The Calcein AM-stained, Fc-blocked RAJI or A20 cells were resuspended in RPMI to a final concentration of 3×10⁶ cells per 1 ml and subsequently used in the adherence assay.
The labeled suspension cells were incubated with the HEK293 monolayer for 1 hour at 37° C., at 5% CO₂.

Experiment [2] concerns the target T1, human LAG3 expressed on HEK293 cells. Description: flow cytometry, HEK293/hLAG3 cells. The procedure:
The serially diluted antibodies were added to the cell suspension and incubated for 15-30 minutes on ice. The cells were centrifuged and pellets were washed with staining buffer to remove unbound antibodies. […] The cells were centrifuged and pellets were washed with staining buffer to remove unbound secondary F(ab′)2 and fixed overnight with a 1:1 dilution of Cytofix (BD Biosciences, #554655) and staining buffer. Following day, fixed cells were centrifuged and pellets were washed with staining buffer, resuspended and filtered. Fluorescence measurements were acquired on HyperCyt® cytometer and analyzed in ForeCyt™ (IntelliCyt; Albuquerque, N. Mex.) to determine the mean fluorescence intensities (MFI). The EC₅₀ values were calculated from a four-parameter logistic equation over an 11-point response curve using GraphPad Prism. EC₅₀ was defined as the concentration of antibody at which 50% of maximal binding signal is detected. The MFI ratio for each antibody was calculated by dividing the MFI at 100 nM by MFI at 0 nM of antibody concentration.
In general terms: Flow cytometry measures light scatter and fluorescence of single cells or particles in a stream.

Experiment [3] concerns the target T2, recombinant human LAG3 expressed with a C-terminal mouse IgG2a mFc tag (human).
T2 construct: Called dimeric; also called hLAG3-mFc; hLAG3 dimer
T2 chain: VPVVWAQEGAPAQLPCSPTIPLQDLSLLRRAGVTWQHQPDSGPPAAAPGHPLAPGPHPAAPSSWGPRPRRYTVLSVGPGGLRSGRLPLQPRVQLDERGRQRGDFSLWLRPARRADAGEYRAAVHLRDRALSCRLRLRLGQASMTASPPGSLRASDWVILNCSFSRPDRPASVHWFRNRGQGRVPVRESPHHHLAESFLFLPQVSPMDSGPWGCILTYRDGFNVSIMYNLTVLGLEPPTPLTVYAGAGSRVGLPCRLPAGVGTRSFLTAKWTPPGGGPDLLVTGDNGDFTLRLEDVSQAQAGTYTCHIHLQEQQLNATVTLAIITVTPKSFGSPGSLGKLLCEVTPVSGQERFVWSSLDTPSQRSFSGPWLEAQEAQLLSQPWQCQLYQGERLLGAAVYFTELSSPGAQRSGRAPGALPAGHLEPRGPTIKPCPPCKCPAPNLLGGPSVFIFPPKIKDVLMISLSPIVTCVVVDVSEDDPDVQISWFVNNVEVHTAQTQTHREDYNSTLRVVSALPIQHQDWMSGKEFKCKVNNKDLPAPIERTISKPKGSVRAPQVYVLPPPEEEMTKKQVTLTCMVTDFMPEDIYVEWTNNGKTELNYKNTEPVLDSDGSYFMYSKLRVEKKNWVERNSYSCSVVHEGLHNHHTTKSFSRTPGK
Nature of the experiment: SPR, mAb captured, 37 C. The procedure:
(§1) The BiaCore sensor surface was derivatized with either a polyclonal rabbit anti-mouse antibody (GE, # BR-1008-38) or with a monoclonal mouse anti-human Fc antibody (GE, # BR-1008-39) to capture approximately 50-85 RUs of anti-LAG3 monoclonal antibodies, expressed with either a mouse Fc or a human Fc, respectively. […] The binding of the LAG3 reagents to captured monoclonal antibodies was monitored for 4 minutes while their dissociation from the antibodies was monitored for 8 minutes in HBST running buffer (0.01 M HEPES pH 7.4, 0.15 M NaCl, 3 mM EDTA, 0.05% v/v Surfactant P20). Experiments were performed at 25° C. and 37° C. Kinetic association (kₐ) and dissociation (kd) rate constants were determined by processing and fitting the data to a 1:1 binding model using Scrubber 2.0c curve fitting software. Binding dissociation equilibrium constants (KD) and dissociative half-lives (t_{1/2}) were then calculated from the kinetic rate constants as: KD (M)=kd/kₐ and t_{1/2} (min)=[ln2/(60*kd)].

The target in experiment [4] is T3, recombinant human LAG3 expressed with a C-terminal myc-myc-hexahistidine tag (human, UniProt P18627 29-450).
T3 construct: also called hLAG3-mmh; hLAG3.mmh
Description: SPR, mAb captured, 37 C. The procedure: as §1
For orientation: Surface plasmon resonance follows binding to a sensor surface in real time, without labels.

B1: H4sH15479P (antibody, V domains shown)
VH: QVQLQQWGAGLLNPSETLSLTCAVYGGAFSDYYWNWIRQPPGKGLEWIGEINHRGSTNYNPSLKSRVTISVDTSKNQFSLRMSSVTAADAAVYYCARGEDYDIWNGYYQEKWGQGTLVTVSS
VL: EIVLTQSPATLSLSPGERATLSCRASQSISTYLAWYQQKPGQAPRLLIYDASKRATGIPARFSGSGSGTDFTLTISSLEPEDFVVYYCHQRSNWPLTFGGGTKVEIK
Turning to B1, half-maximal inhibition in experiment [1] (IC50) was put at 9.6 nM. Moreover, in experiment [2], the EC50 was 0.903 nM and the “Ratio of MFI (100 nM/0 nM)” value stood at 199. In experiment [3], the Kd stood at 0.00342 nM, the koff was 1e-05 s⁻¹, the kon stood at 2.92e+06 M⁻¹ s⁻¹ and the t1/2 was at least 1160 min. Further, in experiment [4], the Kd is 0.0341 nM, the koff was 4.24e-05 s⁻¹, the kon was found to be 1.24e+06 M⁻¹ s⁻¹ and the t1/2 came out at 272 min.

B2: H4H15462P (antibody, human IgG4, V domains shown)
VH: QVQLVQSGAEVKKPGASVKVSCKASGYTFTNYYIHWVRQAPGQGLDWMGIINPGGGNTNYAQKFLGRVTMTRDTSTTTVYMELSSLRSEDTAIYYCARENWNSYFDNWGQGTLVTVSS
VL: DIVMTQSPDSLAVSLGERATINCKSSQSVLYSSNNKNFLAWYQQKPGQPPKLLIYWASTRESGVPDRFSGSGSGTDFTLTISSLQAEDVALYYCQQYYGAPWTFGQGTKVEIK
notes: H4H = human IgG4 Fc with S108P hinge mutation
On to B2, for which the IC50 in experiment [1] was 3.2 nM. Moreover, in experiment [2], the half-maximal effective concentration (EC50) is 0.3 nM and the “Ratio of MFI (100 nM/0 nM)” value is 62.6. For the same molecule, in experiment [3], the Kd is 0.415 nM, the koff came to 0.000895 s⁻¹, the kon came out at 2.16e+06 M⁻¹ s⁻¹ and the t1/2 was 12.9 min. Moreover, in experiment [4], the Kd was 5.8 nM, the koff stood at 0.00626 s⁻¹, the kon was found to be 1.08e+06 M⁻¹ s⁻¹ and the t1/2 was determined as 1.8 min.
